Patent publication US20130109581A1, “POSITIVELY CHARGED SPECIES AS BINDING REAGENTS IN THE SEPARATION OF PROTEIN AGGREGATES FROM MONOMERS” (priority 2009, published 2013)
Where two headings read alike, the source gives them in different places.

B1: AKKKKA (peptide)
peptide: AKKKKA
modifications: not checked
B2: FKFNLFSG (peptide)
peptide: FKFNLFSG
modifications: not checked
B3: FKFSLFSG (peptide)
peptide: FKFSLFSG
modifications: not checked
B4: link-KKKFKF (peptide)
peptide: KKKFKF
modifications: not checked
B5: AAKKKA (peptide)
peptide: AAKKKA
modifications: not checked
B6: KKKFKF-link (peptide)
peptide: KKKFKF
modifications: not checked
B7: AKKKKK (peptide)
peptide: AKKKKK
modifications: not checked
B8: KKKKKK (peptide)
peptide: KKKKKK
modifications: not checked
B9: link-FKFKKK (peptide)
peptide: FKFKKK
modifications: not checked
B10: AAAKAA (peptide)
peptide: AAAKAA
modifications: not checked
B11: … (peptide)
peptide: IRYVTHQYILWP
modifications: not checked
B12: Ac-FKFKKK-Link (Ac-FKFKKK-Ahx-Ahx-Cys-NH2) (peptide)
peptide: FKFKKK
HELM: PEPTIDE1{[ac].F.K.F.K.K.K.[O=C(CCCCCN[*:1])[*:2]].[O=C(CCCCCN[*:1])[*:2]].C.[am]}$$$$V2.0
SMILES: CC(=O)N[C@@H](Cc1ccccc1)C(=O)N[C@@H](CCCCN)C(=O)N[C@@H](Cc1ccccc1)C(=O)N[C@@H](CCCCN)C(=O)N[C@@H](CCCCN)C(=O)N[C@@H](CCCCN)C(=O)NCCCCCC(=O)NCCCCCC(=O)N[C@@H](CS)C(N)=O
B13: DFKLNFKF (peptide)
peptide: DFKLNFKF
modifications: not checked
B14: ANFFAHSS (peptide)
peptide: ANFFAHSS
modifications: not checked
B15: AAKKAA (peptide)
peptide: AAKKAA
modifications: not checked

Assays:
[1] = biological target: Abeta 1-42 globulomer, P05067; assay: 42 (globulomer) RLU over 40 (Abeta 1-40 monomer) RLU
[2] = biological target: Abeta 1-42 globulomer, P05067; assay: MPA bead capture, CSF + 1 ng/mL globulomer, Abeta immunoassay
[3] = biological target: Abeta 1-40 monomer, P05067; assay: MPA bead capture, Abeta 1-40 read-out of the CSF sample (noise)
Abeta 1-40 monomer = Abeta 1-40 monomer (UniProt P05067); assay: as above
[4] = biological target: ADDL (Abeta42 aggregate), P05067; assay: MPA, serial dilutions in CSF, LoD = 2x over background
[5] = biological target: ASPD (Abeta42 aggregate), P05067; assay: as above
[6] = biological target: Abeta (1-42) aggregates from Alzheimer's Disease Brain Homogenate (human), P05067; assay: as above
Abeta42 fibrils, P05067 = assay: as above
[7] = remark: other sources report otherwise

Binder	42:40 ratio [1]	average RLU (42) [2] [RLU]	other results
B1	2.1	322	–
B2	2.4	3230	average RLU (40) [3]: 1330 RLU
B3	1.5	3080	average RLU (40) [3]: 2010 RLU
B4	5.9	1650	–
B5	1.6	247	–
B6	3.9	748	–
B7	2.5	442	–
B8	–	–	42:40 ratio [1, 7]: 3.3; average RLU (42) [2, 7]: 658 RLU
B9	4.1	808	–
B10	0.8	114	–
B11	3.2	3240	average RLU (40) (Abeta 1-40 monomer): 348 RLU; average RLU (40) [3]: 1010 RLU
B12	5.7	2000	LoD [4]: 300 pg/mL; LoD [5]: 300 pg/mL; LoD [6]: < 10 pg/mL; LoD (Abeta42 fibrils, P05067): 100 pg/mL
B13	2	516	–
B14	1.8	994	–
B15	1.1	160	–
